In patent US20230158141A1 (YAFEI SHANGHAI BIOLOG MEDICINE SCIENCE AND TECHNOLOGY, published 2023):

T1: IL-10R1-Fc (UniProt Q13651 22-235, limits assumed)
T1 sequence (looked up): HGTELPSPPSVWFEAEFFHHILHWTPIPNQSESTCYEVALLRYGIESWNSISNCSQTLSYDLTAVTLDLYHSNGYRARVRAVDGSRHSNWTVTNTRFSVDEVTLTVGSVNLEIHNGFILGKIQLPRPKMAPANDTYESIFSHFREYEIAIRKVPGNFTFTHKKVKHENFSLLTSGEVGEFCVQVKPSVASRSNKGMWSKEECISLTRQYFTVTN

T2: IL-10R2-Fc/His (UniProt Q08334 20-220, limits assumed)
T2 sequence (looked up): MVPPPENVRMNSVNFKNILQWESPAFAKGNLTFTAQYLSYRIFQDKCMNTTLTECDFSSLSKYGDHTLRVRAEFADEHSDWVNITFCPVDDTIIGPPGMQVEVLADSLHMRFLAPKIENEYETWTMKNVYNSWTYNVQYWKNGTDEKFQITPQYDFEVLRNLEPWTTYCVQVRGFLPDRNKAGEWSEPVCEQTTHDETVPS


Legend:
PD-1 [1] = biological target: PD-1 (UniProt Q15116 25-167, limits assumed); test: ELISA; S9 on the Cys
Target sequence in this assay (Q15116 25-167 limits assumed): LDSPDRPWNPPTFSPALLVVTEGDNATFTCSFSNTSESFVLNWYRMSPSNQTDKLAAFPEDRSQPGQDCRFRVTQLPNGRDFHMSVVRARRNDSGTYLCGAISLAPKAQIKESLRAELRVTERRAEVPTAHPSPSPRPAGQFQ

PD-1 [2] = biological target: PD-1 (UniProt Q15116 25-167, limits assumed); test: ELISA, OD mutant/OD WT; A=90-110%
Target sequence in this assay (Q15116 25-167 limits assumed): as above

IL-10R1-Fc = biological target: T1, IL-10R1-Fc; test: ELISA, IL-10R1-Fc coated
IL-10R2-Fc/His = biological target: T2, IL-10R2-Fc/His; test: ELISA, IL-10R2-Fc/His coated

Row | Binder | binding activity (OD after mutation/OD wild type) (PD-1 [2]) [%] | Binding recovery (>60%) (IL-10R1-Fc) [%] | Binding recovery (>60%) (IL-10R2-Fc/His) [%] | further results
1 | anti-PD-1 antibody 2 HC Gly10Cys (antibody, human IgG4 S228P, kappa, V domains shown, arm on Cys10 as named in each row) VH: QVQLVESGGCVVQPGRSLRLDCKASGITFSNSGMHWVRQAPGKGLEWVAVIWYDGSKRYYADSVKGRFTISRDNSKNTLFLQMNSLRAEDTAVYYCATNDDYWGQGTLVTVSS VL: EIVLTQSPATLSLSPGERATLSCRASQSVSSYLAWYQQKPGQAPRLLIYDASNRATGIPARFSGSGSGTDFTLTISSLEPEDFAVYYCQQSSNWPRTFGQGTKVEIKR | – | – | – | binding activity, % of wild type (PD-1 [1]): 69.3%
2 | anti-PD-1 antibody 2 HC Thr69Cys (antibody, human IgG4 S228P, kappa, V domains shown, arm on Cys69 as named in each row) VH: QVQLVESGGGVVQPGRSLRLDCKASGITFSNSGMHWVRQAPGKGLEWVAVIWYDGSKRYYADSVKGRFCISRDNSKNTLFLQMNSLRAEDTAVYYCATNDDYWGQGTLVTVSS VL: EIVLTQSPATLSLSPGERATLSCRASQSVSSYLAWYQQKPGQAPRLLIYDASNRATGIPARFSGSGSGTDFTLTISSLEPEDFAVYYCQQSSNWPRTFGQGTKVEIKR | – | – | – | binding activity, % of wild type (PD-1 [1]): 78.6%
3 | anti-PD-1 antibody 1 light chain G28C (antibody, human IgG4 S228P, kappa, V domains shown, also called PD-1-Ab1-Gly28Cys; PD1 Ab-C28) VH: QVQLVQSGVEVKKPGASVKVSCKASGYTFTNYYMYWVRQAPGQGLEWMGGINPSNGGTNFNEKFKNRVTLTTDSSTTTAYMELKSLQFDDTAVYYCARRDYRFDMGFDYWGQGTTVTVSS VL: EIVLTQSPATLSLSPGERATLSCRASKCVSTSGYSYLHWYQQKPGQAPRLLIYLASYLESGVPARFSGSGSGTDFTLTISSLEPEDFAVYYCQHSRDLPLTFGGGTKVEIKR | 90 to 110 | – | – | –
4 | anti-PD-1 antibody 1 light chain S60C (antibody, human IgG4 S228P, kappa, V domains shown) VH: QVQLVQSGVEVKKPGASVKVSCKASGYTFTNYYMYWVRQAPGQGLEWMGGINPSNGGTNFNEKFKNRVTLTTDSSTTTAYMELKSLQFDDTAVYYCARRDYRFDMGFDYWGQGTTVTVSS VL: EIVLTQSPATLSLSPGERATLSCRASKGVSTSGYSYLHWYQQKPGQAPRLLIYLASYLECGVPARFSGSGSGTDFTLTISSLEPEDFAVYYCQHSRDLPLTFGGGTKVEIKR | 90 to 110 | – | – | –
5 | anti-PD-1 antibody 1 light chain G61C (antibody, human IgG4 S228P, kappa, V domains shown) VH: QVQLVQSGVEVKKPGASVKVSCKASGYTFTNYYMYWVRQAPGQGLEWMGGINPSNGGTNFNEKFKNRVTLTTDSSTTTAYMELKSLQFDDTAVYYCARRDYRFDMGFDYWGQGTTVTVSS VL: EIVLTQSPATLSLSPGERATLSCRASKGVSTSGYSYLHWYQQKPGQAPRLLIYLASYLESCVPARFSGSGSGTDFTLTISSLEPEDFAVYYCQHSRDLPLTFGGGTKVEIKR | 90 to 110 | – | – | –
6 | anti-PD-1 antibody 1 light chain S56C (antibody, human IgG4 S228P, kappa, V domains shown) VH: QVQLVQSGVEVKKPGASVKVSCKASGYTFTNYYMYWVRQAPGQGLEWMGGINPSNGGTNFNEKFKNRVTLTTDSSTTTAYMELKSLQFDDTAVYYCARRDYRFDMGFDYWGQGTTVTVSS VL: EIVLTQSPATLSLSPGERATLSCRASKGVSTSGYSYLHWYQQKPGQAPRLLIYLACYLESGVPARFSGSGSGTDFTLTISSLEPEDFAVYYCQHSRDLPLTFGGGTKVEIKR | 90 to 110 | – | – | –
7 | anti-PD-1 antibody 1 light chain S95C (antibody, human IgG4 S228P, kappa, V domains shown) VH: QVQLVQSGVEVKKPGASVKVSCKASGYTFTNYYMYWVRQAPGQGLEWMGGINPSNGGTNFNEKFKNRVTLTTDSSTTTAYMELKSLQFDDTAVYYCARRDYRFDMGFDYWGQGTTVTVSS VL: EIVLTQSPATLSLSPGERATLSCRASKGVSTSGYSYLHWYQQKPGQAPRLLIYLASYLESGVPARFSGSGSGTDFTLTISSLEPEDFAVYYCQHCRDLPLTFGGGTKVEIKR | 90 to 110 | – | – | –
8 | anti-PD-1 antibody 1 light chain G33C (antibody, human IgG4 S228P, kappa, V domains shown) VH: QVQLVQSGVEVKKPGASVKVSCKASGYTFTNYYMYWVRQAPGQGLEWMGGINPSNGGTNFNEKFKNRVTLTTDSSTTTAYMELKSLQFDDTAVYYCARRDYRFDMGFDYWGQGTTVTVSS VL: EIVLTQSPATLSLSPGERATLSCRASKGVSTSCYSYLHWYQQKPGQAPRLLIYLASYLESGVPARFSGSGSGTDFTLTISSLEPEDFAVYYCQHSRDLPLTFGGGTKVEIKR | 90 to 110 | – | – | –
9 | IL-10 Lys34Cys-R4-7 (ligand, human, UniProt P22301 19-178, looked up, R4-7 on Cys 34, mature) SPGQGTQSENSCTHFPGNLPNMLRDLRDAFSRVCTFFQMKDQLDNLLLKESLLEDFKGYLGCQALSEMIQFYLEEVMPQAENQDPDIKAHVNSLGENLKTLRLRLRRCHRFLPCENKSKAVEQVKNAFNKLQEKGIYKAMSEFDIFINYIEAYMTMKIRN | – | 99.6 | 97.3 | –
10 | IL-10 Lys34Cys-S48 (ligand, human, UniProt P22301 19-178, looked up, S48 on Cys 34, mature; also called IL10-K34C-S48) SPGQGTQSENSCTHFPGNLPNMLRDLRDAFSRVCTFFQMKDQLDNLLLKESLLEDFKGYLGCQALSEMIQFYLEEVMPQAENQDPDIKAHVNSLGENLKTLRLRLRRCHRFLPCENKSKAVEQVKNAFNKLQEKGIYKAMSEFDIFINYIEAYMTMKIRN | – | – | – | Decreased fold of binding to ligand after Conjugating with S48 (IL-10R1-Fc): 50 fold; Decreased fold of binding to ligand after Conjugating with S48 (IL-10R2-Fc/His): 5 fold
11 | IL-10 Thr100Cys-R4-7 (ligand, human, UniProt P22301 19-178, looked up, R4-7 on Cys 100, mature) SPGQGTQSENSCTHFPGNLPNMLRDLRDAFSRVKTFFQMKDQLDNLLLKESLLEDFKGYLGCQALSEMIQFYLEEVMPQAENQDPDIKAHVNSLGENLKCLRLRLRRCHRFLPCENKSKAVEQVKNAFNKLQEKGIYKAMSEFDIFINYIEAYMTMKIRN | – | 99.3 | 90.7 | –
12 | IL-10 Ser31Cys-S48 (ligand, human, UniProt P22301 19-178, looked up, S48 on Cys 31, mature) SPGQGTQSENSCTHFPGNLPNMLRDLRDAFCRVKTFFQMKDQLDNLLLKESLLEDFKGYLGCQALSEMIQFYLEEVMPQAENQDPDIKAHVNSLGENLKTLRLRLRRCHRFLPCENKSKAVEQVKNAFNKLQEKGIYKAMSEFDIFINYIEAYMTMKIRN | – | – | – | Decreased fold of binding to ligand after Conjugating with S48 (IL-10R1-Fc): 39 fold; Decreased fold of binding to ligand after Conjugating with S48 (IL-10R2-Fc/His): 7 fold

Now from value to binder, other results behind:

Row | binding activity (OD after mutation/OD wild type) (PD-1 [2]) [%] | Binding recovery (>60%) (IL-10R1-Fc) [%] | Binding recovery (>60%) (IL-10R2-Fc/His) [%] | Binder | further results
13 | 90 to 110 | – | – | anti-PD-1 antibody 1 light chain S26C (antibody, human IgG4 S228P, kappa, V domains shown) VH: QVQLVQSGVEVKKPGASVKVSCKASGYTFTNYYMYWVRQAPGQGLEWMGGINPSNGGTNFNEKFKNRVTLTTDSSTTTAYMELKSLQFDDTAVYYCARRDYRFDMGFDYWGQGTTVTVSS VL: EIVLTQSPATLSLSPGERATLSCRACKGVSTSGYSYLHWYQQKPGQAPRLLIYLASYLESGVPARFSGSGSGTDFTLTISSLEPEDFAVYYCQHSRDLPLTFGGGTKVEIKR | –
14 | 90 to 110 | – | – | anti-PD-1 antibody 1 light chain S35C (antibody, human IgG4 S228P, kappa, V domains shown) VH: QVQLVQSGVEVKKPGASVKVSCKASGYTFTNYYMYWVRQAPGQGLEWMGGINPSNGGTNFNEKFKNRVTLTTDSSTTTAYMELKSLQFDDTAVYYCARRDYRFDMGFDYWGQGTTVTVSS VL: EIVLTQSPATLSLSPGERATLSCRASKGVSTSGYCYLHWYQQKPGQAPRLLIYLASYLESGVPARFSGSGSGTDFTLTISSLEPEDFAVYYCQHSRDLPLTFGGGTKVEIKR | –
15 | 90 to 110 | – | – | anti-PD-1 antibody 1 light chain S30C (antibody, human IgG4 S228P, kappa, V domains shown) VH: QVQLVQSGVEVKKPGASVKVSCKASGYTFTNYYMYWVRQAPGQGLEWMGGINPSNGGTNFNEKFKNRVTLTTDSSTTTAYMELKSLQFDDTAVYYCARRDYRFDMGFDYWGQGTTVTVSS VL: EIVLTQSPATLSLSPGERATLSCRASKGVCTSGYSYLHWYQQKPGQAPRLLIYLASYLESGVPARFSGSGSGTDFTLTISSLEPEDFAVYYCQHSRDLPLTFGGGTKVEIKR | –
16 | 90 to 110 | – | – | anti-PD-1 antibody 1 light chain S32C (antibody, human IgG4 S228P, kappa, V domains shown) VH: QVQLVQSGVEVKKPGASVKVSCKASGYTFTNYYMYWVRQAPGQGLEWMGGINPSNGGTNFNEKFKNRVTLTTDSSTTTAYMELKSLQFDDTAVYYCARRDYRFDMGFDYWGQGTTVTVSS VL: EIVLTQSPATLSLSPGERATLSCRASKGVSTCGYSYLHWYQQKPGQAPRLLIYLASYLESGVPARFSGSGSGTDFTLTISSLEPEDFAVYYCQHSRDLPLTFGGGTKVEIKR | –
17 | – | 99 | 106 | IL-10 Lys119Cys-R4-7 (ligand, human, UniProt P22301 19-178, looked up, R4-7 on Cys 119, mature) SPGQGTQSENSCTHFPGNLPNMLRDLRDAFSRVKTFFQMKDQLDNLLLKESLLEDFKGYLGCQALSEMIQFYLEEVMPQAENQDPDIKAHVNSLGENLKTLRLRLRRCHRFLPCENKSCAVEQVKNAFNKLQEKGIYKAMSEFDIFINYIEAYMTMKIRN | –
18 | – | 125 | 87.4 | IL-10 Ser31Cys-R4-2 (ligand, human, UniProt P22301 19-178, looked up, R4-2 on Cys 31, mature) SPGQGTQSENSCTHFPGNLPNMLRDLRDAFCRVKTFFQMKDQLDNLLLKESLLEDFKGYLGCQALSEMIQFYLEEVMPQAENQDPDIKAHVNSLGENLKTLRLRLRRCHRFLPCENKSKAVEQVKNAFNKLQEKGIYKAMSEFDIFINYIEAYMTMKIRN | –
19 | – | 96.8 | 80 | IL-10 Met22Cys-R4-1 (ligand, human, UniProt P22301 19-178, looked up, R4-1 on Cys 22, mature) SPGQGTQSENSCTHFPGNLPNCLRDLRDAFSRVKTFFQMKDQLDNLLLKESLLEDFKGYLGCQALSEMIQFYLEEVMPQAENQDPDIKAHVNSLGENLKTLRLRLRRCHRFLPCENKSKAVEQVKNAFNKLQEKGIYKAMSEFDIFINYIEAYMTMKIRN | –
20 | – | 100 | 99.7 | IL-10 Lys130Cys-R4-7 (ligand, human, UniProt P22301 19-178, looked up, R4-7 on Cys 130, mature) SPGQGTQSENSCTHFPGNLPNMLRDLRDAFSRVKTFFQMKDQLDNLLLKESLLEDFKGYLGCQALSEMIQFYLEEVMPQAENQDPDIKAHVNSLGENLKTLRLRLRRCHRFLPCENKSKAVEQVKNAFNCLQEKGIYKAMSEFDIFINYIEAYMTMKIRN | –
